Target: T1, CD6 (basal, native) on non-transduced T cells (human, UniProt P30203 18-668)
T1 construct: whole, on cells; also called basal CD6 expression on normal T cells
T1 sequence (looked up): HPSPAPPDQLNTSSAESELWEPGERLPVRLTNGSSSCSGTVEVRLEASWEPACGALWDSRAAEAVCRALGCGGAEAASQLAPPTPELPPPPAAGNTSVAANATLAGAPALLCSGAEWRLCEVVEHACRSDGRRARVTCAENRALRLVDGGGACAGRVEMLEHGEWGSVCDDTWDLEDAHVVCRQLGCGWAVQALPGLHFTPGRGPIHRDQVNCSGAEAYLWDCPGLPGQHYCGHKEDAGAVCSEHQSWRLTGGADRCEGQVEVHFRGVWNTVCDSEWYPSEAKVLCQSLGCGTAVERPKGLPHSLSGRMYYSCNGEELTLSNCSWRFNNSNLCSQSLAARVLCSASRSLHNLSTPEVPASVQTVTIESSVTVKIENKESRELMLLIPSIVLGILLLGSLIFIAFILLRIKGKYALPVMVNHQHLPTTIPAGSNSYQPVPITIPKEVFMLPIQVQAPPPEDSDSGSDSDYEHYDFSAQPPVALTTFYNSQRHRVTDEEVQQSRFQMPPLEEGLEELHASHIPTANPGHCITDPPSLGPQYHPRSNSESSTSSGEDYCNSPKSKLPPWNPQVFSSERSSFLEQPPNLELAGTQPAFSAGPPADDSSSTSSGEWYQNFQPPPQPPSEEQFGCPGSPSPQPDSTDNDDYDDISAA
Assay: flow cytometry; non-transduced T cells stained with ALCAM-Fc and anti-human IgG1 Fc FITC
Experimental: A) FACS analysis was used to confirm ALCAM specific binding to MBE CD6 D3 constructs on the surface of primary T cells. Cells were incubated with IgG1 Fc linked recombinant human ALCAM followed by an anti-human IgG1 Fc FITC conjugated Ab (filled black histogram). Staining of cells with anti-human IgG1 Fc FITC alone (open grey histogram), staining of non-transduced T cells (NT) (dotted open histogram) served as control for basal CD6 expression on normal T cells which bind natively to ALCAM.Fc. and percentage transduction is determined after staining of monomer, monomer+signaling domain, trimer, trimer+signaling domain, pentamer and pentamer+signaling domain (grey-filled histogram) (FIG. 6).

binding result: binds
B1: IgG1 Fc linked recombinant human ALCAM (Fc fusion, UniProt Q13740 28-527, looked up)
chain: WYTVNSAYGDTIIIPCRLDVPQNLMFGKWKYEKPDGSPVFIAFRSSTKKSVQYDDVPEYKDRLNLSENYTLSISNARISDEKRFVCMLVTEDNVFEAPTIVKVFKQPSKPEIVSKALFLETEQLKKLGDCISEDSYPDGNITWYRNGKVLHPLEGAVVIIFKKEMDPVTQLYTMTSTLEYKTTKADIQMPFTCSVTYYGPSGQKTIHSEQAVFDIYYPTEQVTIQVLPPKNAIKEGDNITLKCLGNGNPPPEEFLFYLPGQPEGIRSSNTYTLTDVRRNATGDYKCSLIDKKSMIASTAITVHYLDLSLNPSGEVTRQIGDALPVSCTISASRNATVVWMKDNIRLRSSPSFSSLHYQDAGNYVCETALQEVEGLKKRESLTLIVEGKPQIKMTKKTDPSGLSKTIICHVEGFPKPAIQWTITGSGSVINQTEESPYINGRYYSKIIISPEENVTLTCTAENQLERTVNSLNVSAISIPEHDEADEISDENREKVNDQAK
notes: also called ALCAM-fc; ALCAM-Fc; not shown: IgG1 Fc (detected with anti-human IgG1 Fc antibody)
